Results as given in IntAct's records for PubMed 22817896.

B1: Receptor-interacting serine/threonine-protein kinase 3 (Homo sapiens), Q9Y572 (parent)
chain: MSCVKLWPSGAPAPLVSIEELENQELVGKGGFGTVFRAQHRKWGYDVAVKIVNSKAISREVKAMASLDNEFVLRLEGVIEKVNWDQDPKPALVTKFMENGSLSGLLQSQCPRPWPLLCRLLKEVVLGMFYLHDQNPVLLHRDLKPSNVLLDPELHVKLADFGLSTFQGGSQSGTGSGEPGGTLGYLAPELFVNVNRKASTASDVYSFGILMWAVLAGREVELPTEPSLVYEAVCNRQNRPSLAELPQAGPETPGLEGLKELMQLCWSSEPKDRPSFQECLPKTDEVFQMVENNMNAAVSTVKDFLSQLRSSNRRFSIPESGQGGTEMDGFRRTIENQHSRNDVMVSEWLNKLNLEEPPSSVPKKCPSLTKRSRAQEEQVPQAWTAGTSSDSMAQPPQTPETSTFRNQMPSPTSTGTPSPGPRGNQGAERQGMNWSCRTPEPNPVTGRPLVNIYNCSGVQVGDNNYLTMQQTTALPTWGLAPSGKGRGLQHPPPVGSQEGPKDPEAWSRPQGWYNHSGK
B2: Receptor-interacting serine/threonine-protein kinase 1 (Homo sapiens), Q13546 (parent)
chain: MQPDMSLNVIKMKSSDFLESAELDSGGFGKVSLCFHRTQGLMIMKTVYKGPNCIEHNEALLEEAKMMNRLRHSRVVKLLGVIIEEGKYSLVMEYMEKGNLMHVLKAEMSTPLSVKGRIILEIIEGMCYLHGKGVIHKDLKPENILVDNDFHIKIADLGLASFKMWSKLNNEEHNELREVDGTAKKNGGTLYYMAPEHLNDVNAKPTEKSDVYSFAVVLWAIFANKEPYENAICEQQLIMCIKSGNRPDVDDITEYCPREIISLMKLCWEANPEARPTFPGIEEKFRPFYLSQLEESVEEDVKSLKKEYSNENAVVKRMQSLQLDCVAVPSSRSNSATEQPGSLHSSQGLGMGPVEESWFAPSLEHPQEENEPSLQSKLQDEANYHLYGSRMDRQTKQQPRQNVAYNREEERRRRVSHDPFAQQRPYENFQNTEGKGTAYSSAASHGNAVHQPSGLTSQPQVLYQNNGLYSSHGFGTRPLDPGTAGPRVWYRPIPSHMPSLHNIPVPETNYLGNTPTMPFSSLPPTDESIKYTIYNSTGIQIGAYNYMEIGGTSSSLLDSTNTNFKEEPAAKYQAIFDNTTSLTDKHLDPIRENLGKHWKNCARKLGFTQSQIDEIDHDYERDGLKEKVYQMLQKWVMREGIKGATVGKLAQALHQCSRIDLLSSLIYVSQN

Variants of: B1
Settings: with ripk1_human RIPK1, Q13546

| Variant | effect of a mutation on the interaction |
| --- | --- |
| S456D | decreasing interaction strength |
| Q459D | decreasing interaction strength |
| D462K | decreasing interaction strength |
| V458E;V460E | decreasing interaction strength |
| V458D | decreasing interaction strength |
| V460D | decreasing interaction strength |
| G457D | decreasing interaction strength |
| G461D | decreasing interaction strength |

Variants of: B1
Settings: with ripk1_human RIPK1, Q13546
Remark: another data set of the same source

| Variant | effect of a mutation on the interaction |
| --- | --- |
| Q459P | decreasing interaction strength |
| V458P | decreasing interaction strength |
| V460P | decreasing interaction strength |
| G461P | decreasing interaction strength |

Variants of: B2
Settings: with ripk3_human RIPK3, Q9Y572

| Variant | effect of a mutation on the interaction |
| --- | --- |
| Q540D | decreasing interaction strength |
| A543D | decreasing interaction strength |
| G542D | decreasing interaction strength |
| I539D | decreasing interaction strength |
| N545D | decreasing interaction strength |
| I541D | decreasing interaction strength |
| Y544D | decreasing interaction strength |
